A short description of the series: label from the status in PepcDB records.
Regarding “MPSSRRVRSRCCAFGITKRFACIRPACQRARMDAQMTNFETRLRENAAKTEALLGHLLSGEARADEITRPQNLLEAMRHGVLNGGKRLRPFLVIESVALLGGDAEAGLHVGAALECLHCYSLVHDDLPAMDDDDLRRGQPTVHRKFDEATAILAGDSLLTLAFDIIASDDNPLAAERKAALVISLARAAGIGGMAGGQALDLAAEKKAPDEDGIITLQAMKTGALLRFACEAGAIIAGSNQAERQRLRLFGEKIGLSFQLADDLLDLTADAATMGKATGKDAARGKGTLVALRGEAWAREKLQE”, the protein production result is listed as “not failed”.

In the case of “MPSSSNSAAFSLDEFAKALDKHDYHAEKGQTVHGKICQHANEGVYVDFGGKSPGFVPVQELGLRPHAEIEDSFPLDSAWDFLVTSEQNDEGQVRLSRRQLQIQQSWENLAELEESGKTLEMVVTGTNKGGVVGDVEGLRGFIPRSHLMHKDNMDALVGQVLKAHILEANQDNNKLVLTQRRIQQAESMGKIAAGNIYEGKVAKIQPYGVFVEIEGVTGLLHVSQVSGTRVDSLNTLFAFGQAISVYVQEIDEYKNRISLSTRILETYPGELVEKFDEMMADAPNRLPLVQSKQNLGDKQEQLEKSLEHHHHHH”, the protein production result is given as “failed”.

Consider “MPSSTFSGTVSTPKLSVAVDMGNPFLNLTVDAFLKIGAVGVTKSLAEDTYKAIDKGSLSKSTLEHALKKLCKEGVYWGAAGGVYIGTEYGIERIRGSRDWKNAMLAGAATGAVLSAVGKKGKDTIVIDAILGGALATASQFVNNHYFY”, for which the protein production entry is on record as “failed”.

Take “MPTDDIVQLLKGQEEAWNRGDLDAYMQGYWQNEQLMLISNGKFRNGWDETLAAYKKNYPDKESLGELKFTIKEIKMLSNYAAMVVGRWDLKRLKDTPTGVFTLLVEKIDDRWVITMDHSSD”: the protein production entry was “not failed”.

For the sequence “MPTFHEIDVLRHNSASWDAQAARDCEWSRPVSAEEVAAARRGDWAVKLTPGALPAHWLGDVRGREILCLASAGGQQAPILAAAGARVTLFDASAGQLDKDRQVAARDRLELACVQGDMRDLSTFADASFDLVFNPISNLYVDDVLPVWRECARVLRPGGKLLASFYNPALFIEDRSPELAEQGLIRPRHRLPYSDLESLSAEALAAKREKGEALVFGHSLTQQIAGQLAAGLLLQDFYEDWQPHPRFVIDRFVPTFLATCALKPRSAAG”, the protein production entry was “failed”.

As to “MPTISTSVCVNYTQDQMYELVNDVADYPKYLPLCRDVRVLSAADRHIKATITLAKGAVRLNFTTANTMEPGRHIHMKLVDGPFKYLRGNWRFDANPHGGCDVSFRVDFEFANPLLQMALGGIFREVMESLVAAFCNQAAKRYGNAGPALPPGQAQDGVGRSGSV”, the protein production entry is “failed”.

For the sequence “MPTKKADIYTLAKFGDLGAFKESFKIENINDKSESGSGLLHYAISGLKFDIAMFLIENGIDVNITNEVGQTALHYICNYPNIDVAKCILKHGGDINIRDKYYNNALWTAVFNCKGRYYDMVELFMEYSPDVETKNNAGRSPLDFAIQVGNEKLIKMLRKKE”, the protein production entry is given as “failed”.

With “MPTLEMPVAAVLDSTVGSSEALPDFTSDRYKDAYSRINAIVIEGEQEAHDNYIAIGTLLPDHVEELKRLAKMEMRHKKGFTACGKNLGVEADMDFAREFFAPLRDNFQTALGQGKTPTCLLIQALLIEAFAISAYHTYIPVSDPFARKITEGVVKDEYTHLNYGEAWLKANLESCREELLEANRENLPLIRRMLDQVAGDAAVLQMDKEDLIEDFLIAYQESLTEIGFNTREITRMAAAALVS”, the protein production result is on record as “not failed”.

On to “MPTLKVAYIPEHFSTPLFFAQQQGYYKAHDLSIEFVKVPEGSGRLINLLNSNEVDIAIGLTEAFIADIAKGNENIHVLDTYVKSPLLWAVSTGSNRDDVTDAKQLKRIGVSRIGSGSYVMSFVLAHQLGVPSFDQFQVLSNFKNLRDSVNLKDGVEGSDAFMWEYFTSKKYYDNHEIKQIDQIYTPWSSWVVATSSDSLQAKSDVIKNFIDAVNQGIQYYNEHVDEAIEYISSNLDYSAEDAKEWTKTVEFNSRIGKTPLDWDTIVVKTKDTLKLAGVLAESDDVILKRLNSNVKKTNL”, for which the protein production result is given as “not failed”.

In the case of “MPTNQDLQLAAHLRSQVTTLTRRLRREAQADPVQFSQLVVLGAIDRLGGDVTPSELAAAERMRSSNLAALLRELERGGLIVRHADPQDGRRTRVSLSSEGRRNLYGNRAKREEWLVRAMHACLDESERALLAAAGPLLTRLAQFEEP”, the protein production result is “not failed”.

Turning to “MPTPIHVLPPHVARLIAAGEVVSRPLDVVRELVENALDAGASRIEIEVDGGGLERVQVRDNGSGIAAQSVPLAPARHATSKLTAGPETGSLSVTTLGFRGEALWAAAQAGELELTTRPAAQVGAARLRAQGDAVEVSRTSAPAGTTVTVSQLFARLPARLRTQASAAAEVRDITALLGRYVLHHSALHWRLTVDGDPRLTHAPADHRGAVATVYGPLSANRVLTLDTPGVRGVVSRPELTRARRDRMHFAVNGRPIVAPPELERAVIDAYAELLPAGTAPLCVLDLTVAPEDYDPNIHPAKQVVALADLPAVALRVRDAVAGALAGHPLVRAAPALIAPPEPHPAPTAGNFPDLTLLGVYQELYLLAQGEGDLWVVDAHAAHERALYERLGRELGTAAPLELPTPELLHLTPEQTARLHERGAELRGWGLTIEDFGAGLARLRTLPAALAALPVPRLHEVVVETALSGGPDPRREVLARLACLPALKAGMLDAERGALVLAALRECEQPWACPHGRPTVLRLSERDLAHAFGRRGVRDVARGRDSVV”, the protein production entry is “failed”.

Take “MPTVSVKWQKKVLDGIEIDVSLPPYVFKAQLYDLTGVPPERQKIMVKGGLLKDDGDWAAIGVKDGQKLMMMGTADEIVKAPEKAIVFAEDLPEEALATNLGYSAGLVNLGNTCYMNSTVQCLKSVPELKSALSNYSLAARSNDVDQTSHMLTVATRELFGELDRSVLRKKYPQFSQLQNGMHMQQDAEECWTQLLYTLSQSLKAPTSSEGADAVKALFGVNLQSRIKLGVLDNVTDSTVISKCTLHCQESGEESSETESVYSLKCHISHEVNHLHEGLKHGLKGELEKTSPALGRTALYVKESLIDSLPRYLTVQFVRFFWKRESNQKAKILRKVDYPLVLDIFDLCSEDLRKKLEAPRQKLREEEGKKLGLQTSAKSGSKDSDVKMTDAEASANGSGESSTVNPQEGTSSEKETHMTGIYDLVAVLTHKGRSADSGHYVAWVKQESGKWIQYDDDNPSMQREEDITKLSGGGDWHMAYITMYKARFVSM”: the protein production result is listed as “failed”.

Regarding “MPTYEELSQAVFEGDEAQVVELTRSLLSGGAEPLEVINKGLIAGMDRVGVLFKNNEMFVPEVLMSANAMNAGVEVVKQSQQAFDMPSVGKIVLGTVKGDLHDIGKNLVAMMLESGGFTVYNLGVDIEPGKFVEAVKKYQPDIVGMSALLTTTMMNMKSTIDALIAAGLRDRVKVIVGGAPLSQDFADEIGADGYAPDAASATELCRQLLE”, the protein production result is given as “not failed”.

Regarding “MPVCARAAAATGAAGHRSHLPEVTFCLRTIAERLHGGQHRRMNSSFCHLLHPLRLAAAFTIAAVALSFMPDASAHGAWRWGALAGFTALFVLHTVLPQTHALRTVATLLQAVLALLLVWIEPRAGTAPVLLVMLVAQAGMTWPPLRVLLLALALNAGMYAVLVHAGFDRALLIVSIYAGFQAFAALTAHYARSAERARDALAYVNADLLATRALLADSARDAERLRLARELHDVAGHKLTAMRINLRLLSADPALAQRDEVAVVEQLSAELLSDIRNVVQSLRDDQGLDLQTALRALAAPFPRPTLRLQIDADVRVTDARVAELLLRLVQEALTNAVRHADADEVAVHLHCEGAQLHVDICDDGRRAERIREGNGITGMRERLAALHGQLDLGRTPTGGMHLIARLPV”, the protein production entry is given as “failed”.

For “MPVGIIGHYRCGEHNMGEHHPENGKRLTAISDQLIRSGLDYVVRQFDSKPIDKSLLALAHTQEHIDFVFDNAPNEGEENFTVGEDSVMNEKTLTSIMYSAGAAVDAVDLVMEGTLGAAFCATRPPGHHAEHDKGMGFCFFNNVAVAAAYAKQKYGLKRVAIVDFDVHHGNGTEDIITNHFNATPEDDKGYLFCSSYQYPLYPFEIQESDTPPIINTPLAATTKGEQFREKLTAHWLPALHKFKPELILISAGFDAHIEDEMSHVSLTEADYRWITDELKIIAEEYGKGRIVSVLEGGYAPSALGRSVVAHVNGLIGN”, the protein production entry is “failed”.

“MPVKTFVFDQIQKLMGWCPACRKMTLQTEQPCNFINTAQISGKTGNIPEFRTSNIIFPANTTLVFVLFYICISLLLRYPEDISLFLAGLFLLNIFYYFLYLKTLEAAVLVDRFGVHMHAFRLKKFEIPFEEIESMKLCRLEKRSKKMSLLLVIGGIALCGFFVYIAVAEGEWKPLLLLVSIIPLLLLVEMKQKMRFWNLNTQLYIKTRHKKLYEWTPYYSLITDEASAEELKSFIERHL”: the protein production entry is on record as “failed”.

As to “MPVLVLLLAVGTGCVSTGTNPVSGNTRAYGYSWQEEVTMGQKADKQIQSQYGVYDDEELQEYVDGVAQEVLAESHMRRPDTPERFRNTEFEFRVLDSPIINAFALPGGYVYVTRGLVAHLNNEAQLAMVLGHEIGHVAARHASQQAARQKFTQGLLLSGAVAGQVAFGGNVAENVMGLGGQAAQLLSLSYSRDNERESDRLGVEYAVRAGYDGAEGAAFFESLERVREQGGQSIPTWQSTHPDPGARQQTIPELAQTWRKKVDRPATTIDQDAYYNALEGTVLGKNPRQGFVEEGVFYQPELAFRFSIPSRWDVQNQPQQVALVQPDQSAYMIFTFSDAETPDAAARKFAGQDGLSVLDRQSTSVNGNDARRVLAEGKTQQGQVVRLLTYFIAYGDNVYQFQGTTSADRYDAYRPDFERTMTSFARLTDSEKLNRQPARIAIQAADREGAFRSFVDTDALPSDMTEEDLAIINQLDVDQVVAPDRPLKLPN”, the protein production result is on record as “failed”.

For “MPVMQSRIIHLSVEKPWAEVYDFAANPGNMPRWAAGLAGGLEADGEDWIAKGGPLGEVRVNFAPHNEFGVIDHVVTLPDGLKVYNALRVTPNGSGTEVSFTLLRLEGMTDEDFEQDASAITADLEMLKSLLEAD”, the protein production entry is given as “not failed”.

Regarding “MPVPPEFPLSVFYDGSCSVCATEMEAYMRKEHGGRLLFVDISAPSFDPTPYGITLDAFMYQMHAIDRTGRVYLSVEAFWAIWQAFPASTLYGFLGALVMLPGVNLLARAGYRGFARIRKYLPRRRETCAGGSCRIGQREE”, the protein production result is “failed”.

As to “MPVRVIVDSSACLPTHVAEDLDITVINLHVMNNGEERSTSGLSSLELAASYARQLERGGDDGVLALHISKELSSTWSAAVTAAAVFDDDSVRVVDTSSLGMAVGAAAMAAARMAKDGASLQECYDIAVDTLKRSETWIYLHRIDEIWKSGRISTATAMVSTALATRPIMRFNGGRMEIAAKTRTQSKAFAKLVELAQIRADGEPVFIAIGQNEAREAAKQLEELLRNALPEGSSFMSVDIDPTLAVHSGPGAVSVSAVFANQAPELSTGKAGAK”, the protein production result was “not failed”.

Turning to “MPVSNEIWQLLSRLAEDIRPIGVNISAGEPNRLWTEAKWRALLERFPGERFVVLSGPDDLDAKRRLEEQCPNAVASPPTRNLYEASCIVAKLRLLVTPDTSMVHVASATGTPVAGLYREAPQDISRFGPYAIPYEIVISPTGEVSGIKPESVADAVRRLMARAIGREALEHHHHHH”, the protein production result is “not failed”.

As for “MPYEMKFKGVYVLAMEDNSSFKGKIEVGDTVTGVDGKSFKSSEELMNYIKAQKVNQKVTVQFIQDGKAKEATGKLIELPTDKKAGIGIGLTDHTLEHHHHHH”, the protein production result is recorded as “not failed”.

Regarding “MPYVDRQNRICGFLDIEDNENSGKFLRRYFILDTQANCLLWYMDNPQNLAVGAGAVGSLQLTYISKVSIATPKQKPKTPFCFVINALSQRYFLQANDQKDLKDWVEALNQASK”, the protein production result is given as “not failed”.

In the case of “MPYVFSFKMPQEQGQMFQYYPVYMVLPWEQPQQTVPRSPQQTRQQQYEEQIPFYAQFGYIPQLAEPAISGGQQQLAFDPQLGTAPEIAVMSTGEEIPYLQKEAINFRHDSAGVFMPSTSPKPSTTNVFTSAVDQTITPELPEEKDKTDSLREP”, the protein production entry is “failed”.
